The record followed here is paper PMC9354048.

This assay deals with (opt)EsTKγ (Eptatretus stouti thread keratin γ, from a codon-optimised gene) (Eptatretus stouti). The assay is described as follows: co-assembly by dialysis out of urea, gel separated by ultrafiltration centrifugation and analysed by SDS-PAGE; crudely purified proteins, each 1.0 mg/ml in 8 M urea, 0.02 M NaH2PO4, 0.5 M NaCl, mixed 1:1; gradient dialysis 8 M to 4 M to 2 M to 0 M urea in 2 mM Tris, 1 mM DTT, pH 9, 4°C, 72 h; concentrated in a 10 kDa ultrafiltration tube; gel-like product picked up, diluted and run on SDS-PAGE.

Take “(opt)EsTKα (Eptatretus stouti thread keratin α, from a codon-optimised gene) (natural protein)”: the stoichiometry N (as a rule, a count of units in the complex or per binding partner) was 1.
